The source of these data is patent publication US20200239541A1 (XYPHOS BIOSCIENCES, published 2020).

In assay [1] the target is T1, WT α1-α2 domain (soluble wild-type MICA, titrated) (UniProt Q29983 24-204).
T1 construct: domain: α1-α2; also called WT MICA; WT NKG2DL
T1 sequence (looked up): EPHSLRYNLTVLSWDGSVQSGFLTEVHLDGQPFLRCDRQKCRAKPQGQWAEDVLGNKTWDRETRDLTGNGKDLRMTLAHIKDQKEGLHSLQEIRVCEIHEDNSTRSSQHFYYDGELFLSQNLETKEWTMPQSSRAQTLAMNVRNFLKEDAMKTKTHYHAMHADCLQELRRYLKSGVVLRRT
The assay is described as follows: BLI (Octet), Kd = kOFF/kON. (Biolayer interferometry detects binding as a change in optical thickness at a sensor tip.)

Assay [2] deals with T1, WT α1-α2 domain (soluble wild-type …). The assay is described as follows: BLI (Octet), biotinylated human NKG2D coated, 100 nM analyte.
Assay [3] has as its target T2, His-avitag natural NKG2D ectodomain, biotinylated (human).
T2 construct: also called natural form of the ectodomain of NKG2D
T2 chain: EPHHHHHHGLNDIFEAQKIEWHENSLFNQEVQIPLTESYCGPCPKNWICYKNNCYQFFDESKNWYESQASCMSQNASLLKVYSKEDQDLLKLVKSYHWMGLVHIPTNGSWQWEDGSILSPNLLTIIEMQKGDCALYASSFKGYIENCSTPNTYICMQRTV
The assay is described as follows: BLI (Octet), biotinylated natural NKG2D ectodomain coated, 100 nM fusion. The method, then:
In order to characterize and compare the kinetic binding parameters of the natural and 8 variant α1-α2 domains to natural NKG2D, we measured their binding to surface coated biotinylated natural NKG2D ectodomain using biolayer interferometry (Octet) at 100 nM of each of the α1-α2-α3-Fv fusion proteins.

As a reminder, the Kd is the constant that tells how readily two partners part at equilibrium. Read a low Kd as higher affinity. The term koff denotes a measure of how fast the partners let go of each other. Low values mean slow dissociation, high ones fast dissociation. For orientation: kon means the rate constant with which the complex forms. A high value points to fast association.

B1: biotinylated human NKG2D (Example 1) (receptor, UniProt P26718 78-216, looked up)
chain: FLNSLFNQEVQIPLTESYCGPCPKNWICYKNNCYQFFDESKNWYESQASCMSQNASLLKVYSKEDQDLLKLVKSYHWMGLVHIPTNGSWQWEDGSILSPNLLTIIEMQKGDCALYASSFKGYIENCSTPNTYICMQRTV
notes: also called recombinant biotinylated NKG2D
With B1, the Kd in assay [1] worked out at 13.8 nM. Further, in assay [2], the dissociation rate constant (koff) came to 0.0018 s⁻¹ and the kon turned out to be 130000 M⁻¹ s⁻¹.

B2: DSM25 α1-α2-α3-Fv fusion (SEQ ID NO 43) (ligand)
chain: EPHSLRYNLTVLSWDGSVQSGFLTEVHLDGQPFLRCDRQKCRAKPQGQWAEDVLGNKTWDRETRDLTGWGKDLRMTLAHIKDQKEGLHSLQEIRVCEIHEDNSTRSSQHFYYDGELFLSQNLETLEWTMPQSSRAQTLAMNVRNFLKEDAMETDTHYHAMRADCLSELRRYLKSGVVLRRTVPPMVQVTRSEASGGSGDRVTITCRASQDVSTAVAWYQQKPGKAPKLLIYSASFLYSGVPSRFSGSGSGTDFTLTISSLQPEDFATYYCQQSYTTPPTFGQGTKVEIKGGSSRSSSSGGGGSGGGGEVQLVESGGGLVQPGGSLRLSCAASGFTFTSTGISWVRQAPGKGLEWVGRIYPTNGSTNYADSVKGRFTISADTSKNTAYLQMNSLRAEDTAVYYCARTYGIYDLYVDYTEYVMDYWGQGTLVTVSSGGSSRSSSSGGGGSGGGGDIQMTQSPSSLSASGGSGQITVTCRASGFYPWNITLSWRQDGVSLSHDTQQWGDVLPDGQGTYQTWVATRISQGEEQRFTCYMEHSGQHSTHPVPSGKGSHHHHHH
Turning to B2, the binding result in assay [3] is reported as “binds”.
